The source of these data is PMC2244710, “The Gammaherpesvirus m2 Protein Manipulates the Fyn/Vav Pathway through a Multidocking Mechanism of Assembly” (PLoS ONE, 2008).

Square brackets hold non-standard residues; d marks the D form. Ends that are not written are not given here. * marks the point of attachment. Biotin = O=C1N[C@H]2[C@H](CS[C@H]2CCCCC(=O)*)N1; pY = N[C@@H](Cc1ccc(OP(=O)(O)O)cc1)C(=O)O

This experiment has as its target T1, GST fusion of the SH2 domain of mouse Fyn (residues 145-247) (mouse, UniProt P39688 145-247).
T1 construct: SH2 domain of mouse Fyn, residues 145-247; Cloned into pGEX-6P-1; also called GST-SH2 (Fyn); SH2 domain of Fyn; source: Escherichia coli, IPTG induction, purified with glutathione-sepharose beads
Nature of the experiment: pull-down; 10 µg of biotinylated pY120 peptide incubated with increasing amounts of purified GST proteins overnight at 4°C; recovered with streptavidin-conjugated beads; anti-GST immunoblot. The following applies: both partners purified. On the technique in general: Immunoblotting shows a protein as a band on a membrane.

T1 sequence (P39688 145-247): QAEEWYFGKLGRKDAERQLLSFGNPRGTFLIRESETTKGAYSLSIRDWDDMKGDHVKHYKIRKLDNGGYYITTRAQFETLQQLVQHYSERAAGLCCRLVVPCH

B1: N-terminal biotinylated, tyrosine phosphorylated M2 peptide incorporating Y120 (SPEENIpYETANSE) (peptide)
peptide: Biotin-SPEENI[pY]ETANSE
notes: region of M2 of MHV-68 incorporating Y120; numbers count on: the final spliced form of the protein; also called pY120 peptide; phosphorylated Y120 peptide; source: synthetic peptide, bought: Sigma
B1: the binding result is “binds”.
